The values that follow come from PMC6347577 (Journal of the American Chemical Society, 2018).

This data set deals with the molecule itself. The data set can be described thus: native MS.

B1: hepatitis B virus (HBV) capsid protein Cp149 (truncated form containing only the assembly domain), dimer (domain or fragment)
chain: MDIDPYKEFGATVELLSFLPSDFFPSVRDLLDTAAALYRDALESPEHCSPHHTALRQAILCWGDLMTLATWVGTNLEDPASRDLVVSYVNTNVGLKFRQLLWFHISCLTFGRETVLEYLVSFGVWIRTPPAYRPPNAPILSTLPETTVV
In the case of B1, the stoichiometry N (commonly the number of molecules, sites or subunits per partner or assembly) was ~90 dimers.
